Data from publication PMC3538003, “A full-length recombinant Plasmodium falciparum PfRH5 protein induces inhibitory antibodies that are effective across common PfRH5 genetic variants” (Vaccine, 2013).
Like-named read-outs stand apart in the source and are kept apart here.

Assays:
[1] = molecular target: 7G8 PfRH5-Cd4-biotin (P. falciparum Reticulocyte Binding Protein Homologue 5, 7G8 variant) (Plasmodium falciparum (7G8)); experiment: SPR; kinetic analysis, simple 1:1 model fitted globally; biotinylated PfRH5-Cd4 captured on a streptavidin chip, biotinylated rat Cd4d3+4 in the reference cell; serial dilutions of basigin-Cd4-6H injected at 100 µl/min; BIAcore T100, 37°C, HBS-EP; regeneration with 2M NaCl
[2] = molecular target: 7G8 PfRH5-Cd4-biotin (P. falciparum Reticulocyte Binding Protein Homologue 5, 7G8 variant) (Plasmodium falciparum (7G8)); experiment: as above; remark: listed apart in the source
[3] = molecular target: 7G8 PfRH5-Cd4-biotin (P. falciparum Reticulocyte Binding Protein Homologue 5, 7G8 variant) (Plasmodium falciparum (7G8)); experiment: SPR; equilibrium analysis; biotinylated PfRH5-Cd4 captured on a streptavidin chip, biotinylated rat Cd4d3+4 in the reference cell; serial dilutions of basigin-Cd4-6H injected at 20 µl/min; BIAcore T100, 37°C, HBS-EP; regeneration with 2M NaCl
[4] = molecular target: 3D7 PfRH5-Cd4-biotin (P. falciparum Reticulocyte Binding Protein Homologue 5, 3D7 variant) (Plasmodium falciparum (3D7)); experiment: SPR; kinetic analysis, simple 1:1 model fitted globally; biotinylated PfRH5-Cd4 captured on a streptavidin chip, biotinylated rat Cd4d3+4 in the reference cell; serial dilutions of basigin-Cd4-6H injected at 100 µl/min; BIAcore T100, 37°C, HBS-EP; regeneration with 2M NaCl
[5] = molecular target: GB4 PfRH5-Cd4-biotin (P. falciparum Reticulocyte Binding Protein Homologue 5, GB4 variant) (Plasmodium falciparum (GB4)); experiment: SPR; equilibrium analysis; biotinylated PfRH5-Cd4 captured on a streptavidin chip, biotinylated rat Cd4d3+4 in the reference cell; serial dilutions of basigin-Cd4-6H injected at 20 µl/min; BIAcore T100, 37°C, HBS-EP; regeneration with 2M NaCl
[6] = molecular target: GB4 PfRH5-Cd4-biotin (P. falciparum Reticulocyte Binding Protein Homologue 5, GB4 variant) (Plasmodium falciparum (GB4)); experiment: SPR; kinetic analysis, simple 1:1 model fitted globally; biotinylated PfRH5-Cd4 captured on a streptavidin chip, biotinylated rat Cd4d3+4 in the reference cell; serial dilutions of basigin-Cd4-6H injected at 100 µl/min; BIAcore T100, 37°C, HBS-EP; regeneration with 2M NaCl
[7] = molecular target: 7G8 PfRH5-Cd4-biotin (P. falciparum Reticulocyte Binding Protein Homologue 5, 7G8 variant) (Plasmodium falciparum (7G8)); experiment: as above; remark: listed apart in the source
[8] = molecular target: 3D7 PfRH5-Cd4-biotin (P. falciparum Reticulocyte Binding Protein Homologue 5, 3D7 variant) (Plasmodium falciparum (3D7)); experiment: as above; remark: listed apart in the source
[9] = molecular target: GB4 PfRH5-Cd4-biotin (P. falciparum Reticulocyte Binding Protein Homologue 5, GB4 variant) (Plasmodium falciparum (GB4)); experiment: as above; remark: listed apart in the source
[10] = molecular target: 3D7 PfRH5-Cd4-biotin (P. falciparum Reticulocyte Binding Protein Homologue 5, 3D7 variant) (Plasmodium falciparum (3D7)); experiment: as above; remark: listed apart in the source
[11] = molecular target: GB4 PfRH5-Cd4-biotin (P. falciparum Reticulocyte Binding Protein Homologue 5, GB4 variant) (Plasmodium falciparum (GB4)); experiment: SPR; equilibrium analysis; biotinylated PfRH5-Cd4 captured on a streptavidin chip, biotinylated rat Cd4d3+4 in the reference cell; serial dilutions of basigin-Cd4-6H injected at 20 µl/min; BIAcore T100, 37°C, HBS-EP; regeneration with 2M NaCl; remark: listed apart in the source
[12] = molecular target: GB4 PfRH5-Cd4-biotin (P. falciparum Reticulocyte Binding Protein Homologue 5, GB4 variant) (Plasmodium falciparum (GB4)); experiment: SPR; kinetic analysis, simple 1:1 model fitted globally; biotinylated PfRH5-Cd4 captured on a streptavidin chip, biotinylated rat Cd4d3+4 in the reference cell; serial dilutions of basigin-Cd4-6H injected at 100 µl/min; BIAcore T100, 37°C, HBS-EP; regeneration with 2M NaCl; remark: listed apart in the source
[13] = molecular target: GB4 PfRH5-Cd4-biotin (P. falciparum Reticulocyte Binding Protein Homologue 5, GB4 variant) (Plasmodium falciparum (GB4)); experiment: SPR; equilibrium analysis; biotinylated PfRH5-Cd4 captured on a streptavidin chip, biotinylated rat Cd4d3+4 in the reference cell; serial dilutions of basigin-Cd4-6H injected at 20 µl/min; BIAcore T100, 37°C, HBS-EP; regeneration with 2M NaCl; remark: listed apart in the source
[14] = molecular target: 7G8 PfRH5-Cd4-biotin (P. falciparum Reticulocyte Binding Protein Homologue 5, 7G8 variant) (Plasmodium falciparum (7G8)); experiment: as above; remark: listed apart in the source
[15] = molecular target: 3D7 PfRH5-Cd4-biotin (P. falciparum Reticulocyte Binding Protein Homologue 5, 3D7 variant) (Plasmodium falciparum (3D7)); experiment: as above
[16] = molecular target: human basigin extracellular region, soluble Cd4d3+4-6H-tagged (basigin-Cd4-6H) (human, UniProt P35613 138-325); experiment: SPR; BIAcore T100; monomeric biotinylated PfRH5-Cd4 bait captured on a streptavidin-coated chip, Cd4-biotin in the reference flow cell; serial dilutions of purified basigin-Cd4-6H injected at 20 ul/min (equilibrium) or 100 ul/min (kinetics); Langmuir isotherm fit; settings: both partners purified

## basigin-L-Cd4d3+4-6H (extracellular region of human basigin) (from UniProt P35613 138-325) (domain or fragment)
[1]
  koff: 0.251 s⁻¹
  kon: 125000 M⁻¹ s⁻¹
[2]
  koff: 0.245 s⁻¹
  kon: 122000 M⁻¹ s⁻¹
[3]
  Kd: 800 nM
[4]
  koff: 0.236 s⁻¹
  kon: 95600 M⁻¹ s⁻¹
[5]
  Kd: 1000 nM
[6]
  koff: 0.216 s⁻¹
  kon: 118000 M⁻¹ s⁻¹
[7]
  koff: 0.256 s⁻¹
  kon: 128000 M⁻¹ s⁻¹
[8]
  koff: 0.24 s⁻¹
  kon: 89600 M⁻¹ s⁻¹
[9]
  koff: 0.244 s⁻¹
  kon: 95900 M⁻¹ s⁻¹
[10]
  koff: 0.238 s⁻¹
  kon: 93000 M⁻¹ s⁻¹
[11]
  Kd: 800 nM
[12]
  koff: 0.23 s⁻¹
  kon: 110000 M⁻¹ s⁻¹
[13]
  Kd: 1100 nM
[14]
  Kd: 1000 nM
[15]
  Kd: 1600 nM

B1: 7G8 PfRH5-Cd4-biotin (P. falciparum Reticulocyte Binding Protein Homologue 5, 7G8 variant) (ligand)
chain: FENAIKKTKNQENNLALLPIKSTEEEKDDIKNGKDIKKEIDNDKENIKTNNAKDHSTYIKSYLNTNVNDGLKYLFIPSHNSFIKKYSVFNQINDGMLLNEKNDVKNNEDYKNVDYKNVNFLQYHFKELSNYNIANSIDILQEKEGHLDFVIIPHYTFLDYYKHLSYNSIYHKSSTYGKYIAVDAFIKKINEAYDKVKSKCNDIKNDLIATIKKLEHPYDINNKNDDSYRYDISEEIDDKSEETDDETEEVEDSIQDTDSNHAPSNKKKNDLMNRAFKKMMDEYNTKKKKLIKCIKNHENDFNKICMDMKNYGTNLFEQLSCYNNNFCNTNGIRYHYDEYIHKLILSVKSKNLNKDLSDMTNILQQSELLLTNLNKKMGSYIYIDTIKFIHKEMKHIFNRIEYHTKIINDKTKIIQDKIKLNIWRTFQKDELLKRILDMSNEYSLFITSDHLRQMLYNTFYSKEKHLNNIFHHLIYVLQMKFNDVPIKMEYFQTYKKNKPLTQ
modifications: monobiotinylated (biotin)
[16]
  Kd: 900 nM
